What was measured:
[1] = target: nonglycosylated CmeA (g0CmeA), soluble periplasmic His6-tagged CmeA (Campylobacter jejuni) (UniProt Q0PBE3); assay: SPR; g0CmeA (1,040 RU) or g2CmeA (900 RU) immobilised on a CM5 chip by amine coupling; CmeC flowed over in 2-fold dilutions from 2 × 10^-7 M; HBS-PE (10 mM HEPES pH 7.4, 3 mM EDTA, 0.005% P20), 25°C, 30 µl/min; constants are of the slow interactions only, the fast interactions could not be fitted
[2] = target: fully glycosylated CmeA (g2CmeA), soluble periplasmic His6-tagged CmeA (Campylobacter jejuni) (UniProt Q0PBE3); assay: as above
[3] = target: CmeC (outer membrane channel of the CmeABC efflux pump) (UniProt Q0PBE5); assay: SPR (Biacore, CM5 chip); conditions: pH 7.4; 25°C; not stated (no salt is listed in the buffer recipes); pH 7.4: 10 mM HEPES (HBS-PE); pH 6.0: 10 mM MES

## CmeC, outer membrane channel of CmeABC, 10×His-tagged, expressed in E. coli (natural protein)
[1]
  Kd: 17 nM
  koff: 0.00085 s⁻¹
  kon: 50000 M⁻¹ s⁻¹
[2]
  Kd: 5 nM
  koff: 0.00075 s⁻¹
  kon: 150000 M⁻¹ s⁻¹

## g0CmeA (non-glycosylated CmeA, periplasmic fusion protein of the CmeABC efflux pump)
[3]
  koff: 8.5 ± 1.0 × 10^–4 s^–1
  kon: 5.0 ± 0.8 × 10^4 (M^–1 s^–1)

## g2CmeA (fully N-glycosylated CmeA)
[3]
  koff: 7.5 ± 0.6 × 10^–4 s^–1
  kon: 1.5 ± 0.04 × 10^5 (M^–1 s^−1)

Source: publication PMC7683400
